Data reported in patent publication US20240109965A1 (Ablynx, published 2024).

T1: cynomolgus T cell receptor (TCRαβ) on primary cynomolgus T cells (cynomolgus)
T1 V domain 1: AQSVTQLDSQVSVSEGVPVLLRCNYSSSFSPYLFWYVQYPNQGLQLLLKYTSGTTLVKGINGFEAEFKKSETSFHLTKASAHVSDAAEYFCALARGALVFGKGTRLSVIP
T1 V domain 2: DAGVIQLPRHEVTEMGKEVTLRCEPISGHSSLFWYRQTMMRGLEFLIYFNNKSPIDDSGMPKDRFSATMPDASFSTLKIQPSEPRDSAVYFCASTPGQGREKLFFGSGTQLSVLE

T2: cynomolgus TCRαβ-zipper protein (cynomolgus)
T2 construct: also called cyTCR(AEA41865)-zipper; CynoTCRαβ-zipper
T2 TCR alpha: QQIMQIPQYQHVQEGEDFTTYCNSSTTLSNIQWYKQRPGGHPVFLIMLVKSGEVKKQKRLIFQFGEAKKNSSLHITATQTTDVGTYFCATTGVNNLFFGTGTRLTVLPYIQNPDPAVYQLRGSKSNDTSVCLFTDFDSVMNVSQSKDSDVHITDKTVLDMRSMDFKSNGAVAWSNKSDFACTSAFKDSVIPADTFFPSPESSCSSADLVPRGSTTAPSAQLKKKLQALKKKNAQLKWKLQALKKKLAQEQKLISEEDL
T2 TCR beta: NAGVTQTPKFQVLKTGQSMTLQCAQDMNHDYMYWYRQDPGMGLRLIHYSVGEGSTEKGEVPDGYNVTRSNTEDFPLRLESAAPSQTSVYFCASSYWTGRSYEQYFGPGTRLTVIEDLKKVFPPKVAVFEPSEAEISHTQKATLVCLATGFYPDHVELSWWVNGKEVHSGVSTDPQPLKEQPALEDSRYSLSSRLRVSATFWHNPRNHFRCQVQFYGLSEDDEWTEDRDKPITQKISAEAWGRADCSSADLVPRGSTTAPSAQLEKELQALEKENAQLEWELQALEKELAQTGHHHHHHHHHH


How the values were obtained:
[1] = molecular target: T1, cynomolgus T cell receptor (TCRαβ) on …; experiment: cell-based or functional assay
[2] = molecular target: T3, human T cell receptor (TCRαβ) on primary human T cells (human); experiment: cell-based or functional assay
[3] = molecular target: T2, cynomolgus TCRαβ-zipper protein; experiment: SPR Biacore 8K+, multi-cycle kinetics, TCR-zipper immobilized
Description: Binding of purified TCE-CD123-ALB and CD123-TCE-ALB ISVD constructs to human TCRαβ-zipper protein (huTCR(2XN9)-zipper, in-house produced) and cynomolgus TCRαβ-zipper protein (cyTCR(AEA41865)-zipper, in-house produced) was probed by Surface Plasmon Resonance (SPR) (Cytiva, Biacore 8K+). Both targets were immobilized on a CM5 sensor chip using standard amine coupling chemistry. […] Each concentration of the ISVDs was injected for 180s and dissociation was assessed during 600s.
Data was double referenced by subtracting a reference flow cell (FC) and a blank buffer injection. Affinity constants (ka, kd and KD) were calculated applying the Langmuir 1:1 interaction model using the Biacore Insight Evaluation Software (Cytiva, Version 3.0.12.15655).

[4] = molecular target: T3, human T cell receptor (TCRαβ) on …; experiment: cell-based or functional assay; remark: listed apart in the source

T3 sequence (P0DTU3 134-275, chain 1 of 2): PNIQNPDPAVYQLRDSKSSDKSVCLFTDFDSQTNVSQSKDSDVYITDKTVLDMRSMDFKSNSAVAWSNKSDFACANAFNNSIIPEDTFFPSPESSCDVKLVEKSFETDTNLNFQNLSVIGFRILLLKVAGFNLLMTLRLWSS
T3 sequence (P01850 other isoform, or with tags, fused parts or gaps, chain 2 of 2, further chain): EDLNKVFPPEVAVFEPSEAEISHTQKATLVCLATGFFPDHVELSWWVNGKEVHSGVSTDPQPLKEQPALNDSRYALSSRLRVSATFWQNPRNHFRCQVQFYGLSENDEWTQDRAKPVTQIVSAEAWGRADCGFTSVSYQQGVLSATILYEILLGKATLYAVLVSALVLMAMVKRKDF

Row | Kd [3] | Binder | Potency (M) - cyno T cells, KG-1a cell killing [1] | Potency (M) - human T cells, KG-1a cell killing [2] | EC50 (M), human T cell mediated MOLM-13 cell killing, Donor #1 [4] | EC50 (M), human T cell mediated MOLM-13 cell killing, Donor #2 [4]
1 | 13 nM | T017001017 (bispecific antibody) EVQLVESGGGVVQPGGSLRLSCVASGYVHKINFYGWYRQAPGKEREKVAHISIGDQTDYADSAKGRFTISRDESKNTVYLQMNSLRPEDTAAYYCRALSRIWPYDYWGQGTLVTVSSGGGGSGGGSEVQLVESGGGVVQPGGSLRLSCAASGTTLDYYVIGWFRQAPGKEREGVSCISSSDGYTYYADSVKGRFTISRDNAKNTVYLQMNSLRPEDTALYYCATDPYYSSCHPFFADYEYDYWGQGTLVTVSSGGGGSGGGSEVQLVESGGGVVQPGGSLRLSCAASGFTFRSFGMSWVRQAPGKGPEWVSSISGSGSDTLYADSVKGRFTISRDNSKNTLYLQMNSLRPEDTALYYCTIGGSLSRSSQGTLVTVSS | 3.9e-11 M | 2.1e-10 M | 4.5e-11 M | 9.2e-11 M
2 | 550 nM | T017001020 (bispecific antibody) EVQLVESGGGVVQPGGSLRLSCVASGYVHKINFYGWYRQAPGKEREKVAHISIGDQTDYAESAKGRFTISRDESKNTVYLQMNSLRPEDTAAYYCRALSRISPYDYWGQGTLVTVSSGGGGSGGGSEVQLVESGGGVVQPGGSLRLSCAASGTTLDYYVIGWFRQAPGKEREGVSCISSSDGYTYYADSVKGRFTISRDNAKNTVYLQMNSLRPEDTALYYCATDPYYSSCHPFFADYEYDYWGQGTLVTVSSGGGGSGGGSEVQLVESGGGVVQPGGSLRLSCAASGFTFRSFGMSWVRQAPGKGPEWVSSISGSGSDTLYADSVKGRFTISRDNSKNTLYLQMNSLRPEDTALYYCTIGGSLSRSSQGTLVTVSS |  | 7.6e-10 M |  | 
3 | 32 nM | T017001018 (bispecific antibody) EVQLVESGGGVVQPGGSLRLSCVASGYVHKINFYGWYRQAPGKEREKVAHISIGDQTDYAESAKGRFTISRDESKNTVYLQMNSLRPEDTAAYYCRALSRIYPYDYWGQGTLVTVSSGGGGSGGGSEVQLVESGGGVVQPGGSLRLSCAASGTTLDYYVIGWFRQAPGKEREGVSCISSSDGYTYYADSVKGRFTISRDNAKNTVYLQMNSLRPEDTALYYCATDPYYSSCHPFFADYEYDYWGQGTLVTVSSGGGGSGGGSEVQLVESGGGVVQPGGSLRLSCAASGFTFRSFGMSWVRQAPGKGPEWVSSISGSGSDTLYADSVKGRFTISRDNSKNTLYLQMNSLRPEDTALYYCTIGGSLSRSSQGTLVTVSS | 4e-11 M | 2.7e-10 M | 3.3e-11 M | 1e-10 M
4 | 1600 nM | T017001019 (bispecific antibody) EVQLVESGGGVVQPGGSLRLSCVASGYVHKINFYGWYRQAPGKEREKVAHISIGDQTDYAESAKGRFTISRDESKNTVYLQMNSLRPEDTAAYYCRALSRITPYDYWGQGTLVTVSSGGGGSGGGSEVQLVESGGGVVQPGGSLRLSCAASGTTLDYYVIGWFRQAPGKEREGVSCISSSDGYTYYADSVKGRFTISRDNAKNTVYLQMNSLRPEDTALYYCATDPYYSSCHPFFADYEYDYWGQGTLVTVSSGGGGSGGGSEVQLVESGGGVVQPGGSLRLSCAASGFTFRSFGMSWVRQAPGKGPEWVSSISGSGSDTLYADSVKGRFTISRDNSKNTLYLQMNSLRPEDTALYYCTIGGSLSRSSQGTLVTVSS | 7.4e-10 M | 2.3e-09 M | 1.5e-10 M | 5.2e-10 M
5 | 3400 nM | T017001021 (bispecific antibody) EVQLVESGGGVVQPGGSLRLSCVASGYVHKINFYGWYRQAPGKEREKVAHISIGDQTDYAESAKGRFTISRDESKNTVYLQMNSLRPEDTAAYYCRALSRIQPYDYWGQGTLVTVSSGGGGSGGGSEVQLVESGGGVVQPGGSLRLSCAASGTTLDYYVIGWFRQAPGKEREGVSCISSSDGYTYYADSVKGRFTISRDNAKNTVYLQMNSLRPEDTALYYCATDPYYSSCHPFFADYEYDYWGQGTLVTVSSGGGGSGGGSEVQLVESGGGVVQPGGSLRLSCAASGFTFRSFGMSWVRQAPGKGPEWVSSISGSGSDTLYADSVKGRFTISRDNSKNTLYLQMNSLRPEDTALYYCTIGGSLSRSSQGTLVTVSS | 9.4e-10 M | 5.7e-09 M | 2.3e-10 M | 2.1e-09 M
6 | 3900 nM | T017001026 (bispecific antibody) DVQLVESGGGVVQPGGSLRLSCVASGYVHKINFYGWYRQAPGKEREKVAHISIGDQTDYAESAKGRFTISRDESKNTVYLQMNSLRPEDTAAYYCRALSRIQPYDYWGQGTLVTVSSGGGGSGGGSEVQLVESGGGVVQPGGSLRLSCAASGTTLDYYVIGWFRQAPGKEREGVSCISSSDGYTYYADSVKGRFTISRDNAKNTVYLQMNSLRPEDTALYYCATDPYYSSCHPFFADYEYDYWGQGTLVTVSSGGGGSGGGSEVQLVESGGGVVQPGGSLRLSCAASGFTFRSFGMSWVRQAPGKGPEWVSSISGSGSDTLYADSVKGRFTISRDNSKNTLYLQMNSLRPEDTALYYCTIGGSLSRSSQGTLVTVSS |  |  | 3.4e-10 M | 4.4e-09 M
7 | 400 nM | T017001028 (bispecific antibody) EVQLVESGGGVVQPGGSLRLSCAASGTTLDYYVIGWFRQAPGKEREGVSCISSSDGYTYYADSVKGRFTISRDNAKNTVYLQMNSLRPEDTALYYCATDPYYSSCHPFFADYEYDYWGQGTLVTVSSGGGGSGGGSEVQLVESGGGVVQPGGSLRLSCVASGYVHKINFYGWYRQAPGKEREKVAHISIGDQTDYAESAKGRFTISRDESKNTVYLQMNSLRPEDTAAYYCRALSRIYPYDYWGQGTLVTVSSGGGGSGGGSEVQLVESGGGVVQPGGSLRLSCAASGFTFRSFGMSWVRQAPGKGPEWVSSISGSGSDTLYADSVKGRFTISRDNSKNTLYLQMNSLRPEDTALYYCTIGGSLSRSSQGTLVTVSS |  |  | 6.7e-10 M | 3.2e-09 M
8 | 3600 nM | T017001030 (bispecific antibody) EVQLVESGGGVVQPGGSLRLSCAASGTTLDYYVIGWFRQAPGKEREGVSCISSSDGYTYYADSVKGRFTISRDNAKNTVYLQMNSLRPEDTALYYCATDPYYSSCHPFFADYEYDYWGQGTLVTVSSGGGGSGGGSEVQLVESGGGVVQPGGSLRLSCVASGYVHKINFYGWYRQAPGKEREKVAHISIGDQTDYAESAKGRFTISRDESKNTVYLQMNSLRPEDTAAYYCRALSRISPYDYWGQGTLVTVSSGGGGSGGGSEVQLVESGGGVVQPGGSLRLSCAASGFTFRSFGMSWVRQAPGKGPEWVSSISGSGSDTLYADSVKGRFTISRDNSKNTLYLQMNSLRPEDTALYYCTIGGSLSRSSQGTLVTVSS |  |  | 5.8e-09 M | 
9 | 190 nM | T017001027 (bispecific antibody) EVQLVESGGGVVQPGGSLRLSCAASGTTLDYYVIGWFRQAPGKEREGVSCISSSDGYTYYADSVKGRFTISRDNAKNTVYLQMNSLRPEDTALYYCATDPYYSSCHPFFADYEYDYWGQGTLVTVSSGGGGSGGGSEVQLVESGGGVVQPGGSLRLSCVASGYVHKINFYGWYRQAPGKEREKVAHISIGDQTDYADSAKGRFTISRDESKNTVYLQMNSLRPEDTAAYYCRALSRIWPYDYWGQGTLVTVSSGGGGSGGGSEVQLVESGGGVVQPGGSLRLSCAASGFTFRSFGMSWVRQAPGKGPEWVSSISGSGSDTLYADSVKGRFTISRDNSKNTLYLQMNSLRPEDTALYYCTIGGSLSRSSQGTLVTVSS |  |  | 5.7e-10 M | 2.8e-09 M
